Measured values taken from article PMC10899660, “Global fungal-host interactome mapping identifies host targets of candidalysin” (Nature Communications, 2024).
pKd: −log10 of the molar value.

Molecular target: Recombinant Cyclin H (CCNH) protein with a C-HIS tag (human) (UniProt P51946)
Assay: SPR; Biacore T200, 25 °C, 30 μL/min, HBS-EP running buffer; CCNH amine-coupled on a CM5 chip (1200 RU); candidalysin in 1:1 serial dilution, multicycle, association 120 s, dissociation 150 s

candidalysin (Ece1-III), synthetic peptide, sequence (Q07730 62-92 limits assumed): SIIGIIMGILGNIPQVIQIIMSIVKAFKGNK
Recombinant Cyclin H (CCNH) protein with a C-HIS tag (human), sequence (P51946 whole entry): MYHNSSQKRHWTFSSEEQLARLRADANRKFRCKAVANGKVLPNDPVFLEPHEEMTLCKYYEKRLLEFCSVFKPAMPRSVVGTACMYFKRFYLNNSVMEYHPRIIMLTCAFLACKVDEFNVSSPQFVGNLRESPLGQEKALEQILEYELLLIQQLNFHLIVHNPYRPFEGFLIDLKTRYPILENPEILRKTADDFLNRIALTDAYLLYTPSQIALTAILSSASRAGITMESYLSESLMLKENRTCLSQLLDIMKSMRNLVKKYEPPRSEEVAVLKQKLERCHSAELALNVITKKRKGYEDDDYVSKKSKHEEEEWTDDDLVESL

**Q.** Which results are given for “candidalysin (Ece1-III), synthetic peptide”?
**A.** pKd: 7.76; koff: 0.00171 s⁻¹; kon: 99200 M⁻¹ s⁻¹
